No end group written: not given here.
Assays:
[1] = type: physicochemical
Method: The lipophilicity of ^68Ga-M2 was assessed by determination of the water-octanol partition coefficient. 1-Octanol (1 mL) was added to a solution of approximately 25 μCi of ^68Ga-M2 in water (1 mL) and the layers were vigorously mixed for 5 min at room temperature. The tubes were centrifuged at 14,000 rpm for 2-3 min. Three samples of 100 μL of each layer were taken in pre-weighed vials, re-weighed, and counted in a […] (Wizard-2, Perkin Elmer). The partition coefficient was determined by calculating the ratio of counts per minute (cpm) in weight (g) of octanol/cpm in weight (g) of water and expressed as log P. At least three independent experiments were performed in triplicate to give the log P as the mean value±standard deviation (SD).

[2] = radiochemical stability of ^68Ga-M2 in PBS or DTPA challenge (radio-HPLC); type: physicochemical; details: room temperature, 3 h incubation
Method: (§1) The chemical, radiochemical and optical stability of radioactive and non-radioactive M2 were examined using a series of in vitro stability studies. M2 was incubated in PBS and water at room temperature and 4° C. for 14 days, followed by HPLC analysis of peptide and fluorescent stability. To assess radiochemical stability, ^68Ga-M2 was added to a solution of PBS or DTPA (500-fold excess), kept at room temperature for 1, 2 and 3 h, and analyzed by radio-HPLC. To evaluate serum stability, 150 μl of ^68Ga-M2 was added to 50% mouse serum and incubated at 37° C. An 80 μl aliquot was taken at each of the above-mentioned time points and added to 160 μl ice-cold acetonitrile. The samples were centrifuged at 14,000 rpm for 5 min and the supernatant was collected, filtered and analyzed by radio-HPLC.

[3] = in vitro; type: in vitro ADME; details: mouse, serum
Method: as §1

[4] = characterization of fluorescent properties; type: physicochemical
Method: Fluorescence intensity of the fluorophores was determined using the Fluorolog Tau-3 Spectrofluorometer (Horiba Jobin Yvon, Edison, N.J.) with excitation from a xenon arc lamp and absorbance was recorded using the DU-800 Spectrophotometer (Beckman Coulter, Brea Calif.). Fluorescence excitation and emission spectra were obtained at wavelengths of 785 and 830 nm respectively, with an integration time of 0.3 seconds for 1 μM solutions of IRDye 800CW, M2 and ^68Ga-M2 (n=4). Fluorescence measurements for IRDye 800CW and M2 were performed in aqueous solution under ambient conditions, whereas ^68Ga-M2 was prepared as previously described in NaOAc (pH 4) to provide an accurate representation of the ^68Ga-labeling scheme. Extinction coefficients were determined from the slope of absorbance at 785 nm as a function of the concentration of serial dilutions of each agent. Fluorescence quantum yield was determined by the comparative method of Williams et al. (Williams et al., 1983) using the quantum yield of ICGO (Φ=0.016) at 785/830 nm as a standard.

[5] = target: T1, MMP-9 (Mus musculus, UniProt P41245); test: NIRF imaging of ^68Ga-M2 in murine model of BMP-2 induced HO; type: in vivo; set-up: injected intramuscularly into each hind limb quadriceps muscle of nonobese diabetic/severely compromised immunodeficient (NOD/SCID) mice; from tissue; host or cells: hind limb muscle of living NOD/SCID mice injected with AdBMP2- or Adempty-transduced human fibroblasts; details: day 4 after implantation, 18 hr after i.v. administration
Method: (§2) A murine model of BMP-2 induced HO was used as previously described (Rodenberg et al., 2010). […] Control transduced cells were injected into the contralateral limb.
Based on the findings from the ex vivo analysis, mice were imaged on day 4 post-implantation with NIRF imaging to assess localization and in vivo fluorescence of M2 following ^68Ga-labeling. […] NIR fluorescence images were acquired 18 hr after intravenous administration of ^68Ga-M2 using a custom-built fluorescence imaging systems previously described Houston et al., 2005). Briefly, a field of view was illuminated with 785 nm of light from a laser diode, outfitted with a convex lens and diffuser to create a uniform excitation field. The fluorescence was collected through holographic and interference filters placed before a Nikon camera lens. The images were finally captured by an electron-multiplying charge-coupled device camera (PhotonMax 512; Princeton Instruments, Princeton, N.J.) with 200 to 400 milliseconds of integration time. For acquisition of white-light images, the optical filters were removed, and a low-power lamp illuminated the subject. Image acquisition was accomplished by V++ software (Auckland, New Zealand).

[6] = target: T1, MMP-9; set-up: injected intramuscularly into each hind limb quadriceps muscle of nonobese diabetic/severely compromised immunodeficient (NOD/SCID) mice; from tissue; host or cells: hind limb muscle of living NOD/SCID mice injected with AdBMP2- or Adempty-transduced human fibroblasts; details: in vivo, iv
Method: as §2
The anesthetized mice were injected intravenously with ^68Ga-M2 (200 μCi, 6 nmol) and μPET/CT images were acquired 1 h post-injection. To visualize the formation of ectopic bone, CT imaging was performed on days 4 and 11 post-implantation

[7] = system: MMP-2/9; details: Koivunen et al., 1999; cited from earlier work
[8] = in vivo; Kuhnast et al., 2004; Sprague et al., 2006; cited from earlier work
[9] = 1 μM solutions, IRDye 800CW and M2 aqueous, ^68Ga-M2 in NaOAc pH 4

T1 sequence (P41245 108-730): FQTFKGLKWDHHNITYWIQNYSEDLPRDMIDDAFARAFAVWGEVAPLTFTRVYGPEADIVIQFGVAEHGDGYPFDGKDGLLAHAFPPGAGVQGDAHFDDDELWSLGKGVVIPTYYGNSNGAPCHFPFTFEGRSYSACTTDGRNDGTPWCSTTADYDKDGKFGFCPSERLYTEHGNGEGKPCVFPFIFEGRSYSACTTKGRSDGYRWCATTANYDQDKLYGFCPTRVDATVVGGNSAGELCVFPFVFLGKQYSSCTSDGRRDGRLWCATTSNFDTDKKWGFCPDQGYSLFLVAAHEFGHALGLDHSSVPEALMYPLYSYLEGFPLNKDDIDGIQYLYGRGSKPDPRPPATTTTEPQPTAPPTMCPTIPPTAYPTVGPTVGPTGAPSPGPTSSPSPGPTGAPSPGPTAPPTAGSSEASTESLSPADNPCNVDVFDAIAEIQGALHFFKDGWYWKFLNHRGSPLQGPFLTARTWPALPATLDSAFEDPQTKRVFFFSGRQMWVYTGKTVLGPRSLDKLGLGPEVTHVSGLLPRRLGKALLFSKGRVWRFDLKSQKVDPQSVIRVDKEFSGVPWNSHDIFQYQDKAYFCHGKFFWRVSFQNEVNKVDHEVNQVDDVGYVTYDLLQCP

Compound | logP [1] | radiochemical purity ([2]; DTPA (500-fold excess)) [%] | radiochemical purity ([2]; PBS) [%] | remaining at 3 h [3] [%] | Emission maximum [4, 9] [nm] | Excitation wavelength [4, 9] [nm] | Quantum yield ([4]; 785/830 nm, relative to ICG (Φ=0.016)) | Extinction coefficient ([4]; absorbance at 785 nm, serial dilutions, mean ± SD (n=4)) | absorbance maximum ([4]; optical spectrum) [nm] | localization of agent by NIR fluorescence [5] | clearance from circulation [6] | inhibitory activity against MMP-2/9 [7] | susceptibility to non-specific degradation [8]
CC(C)C[C@@H]1NC(=O)[C@H]([C@@H](C)O)NC(=O)[C@H](Cc2ccccc2)NC(=O)CNC(=O)[C@H](Cc2c[nH]c3ccccc23)NC(=O)[C@H](Cc2c[nH]cn2)NC(=O)[C@H](C)NC(=O)[C@@H](NC(=O)[C@H](CCCCNC(=O)CCCCC[N+]2=C(C=CC3=C(Oc4ccc(S(=O)(=O)O)cc4)C(=CC=C4N(CCCCS(=O)(=O)O)c5ccc(S(=O)(=O)O)cc5C4(C)C)CCC3)C(C)(C)c3cc(S(=O)(=O)[O-])ccc32)NC(=O)CN2CCN(CC(=O)O)CCN(CC(=O)O)CCN(CC(=O)O)CC2)CCCCNC(=O)C[C@@H](C(=O)O)NC1=O (single isomer, unassigned) [^68Ga-M2, metal not drawn] | -2.09 ± 0.02 | > 95 | > 95 | > 95 | 830 | 785 | 0.031 | 108,069±7,918 M^−1cm^−1 | 785 | observed in the tissue region with BMP-2 producing cells | rapidly cleared from circulation via the kidneys | – | –
c(CTTHWGFTLC) (also: cyclic, c(...), ring type and places not given here) | – | – | – | – | – | – | – | – | – | – | – | potent inhibitory activity | highly susceptible to non-specific degradation

From patent US20140178293A1, “METHODS FOR IMAGING BONE PRECURSOR CELLS USING DUAL-LABELED IMAGING AGENTS TO DETECT MMP-9 POSITIVE CELLS” (BAYLOR COLLEGE OF MEDICINE, priority 2011, published 2014)
